Measured values from patent publication US7026148.

Target: bovine calmodulin (Sigma), P62157

B1: FLAG-tagged wild type DRP-1 (DAP-kinase-related protein 1) (protein)
chain: MEPFKQQKVEDFYDIGEELGSGQFAIVKKCREKSTGLEYAAKFIKKRQSRASRRGVSREEIEREVSILRQVLHHNVITLHDVYENRTDVVHILELVSGGELFDFLAQKESLSEEEATSFIKQILDGVNYLHTKKIAHFDLKPENIMLLDKNIPIPHIKLIDFGLAHEIEDGVEFKNIFGTPEFVAPEIVNYEPLGLEADMWSIGVITYILLSGASPFLGDTKQETLANITSVSYDFDEEFFSHTSELAKDFIRKLLVKETRKRLTIQEALRHPWITPVDNQQAMVRRESVVNLENFRKQYVRRRWKLSFSIVSLCNHLTRSLMKKVHLRPDEDLRNCESDTEEDIARRKALHPRRRSSTS
  amount of phosphorylated MLC in the in vitro kinase assay: The addition of Ca2+/calmodulin to the reaction mixture increased the amount of phosphorylated MLC
